According to patent US20200231671A1 (E R SQUIBB AND SONS L L C, published 2020):
Where a chain is given by its changes, count along the chain named. Where no end group is shown, it is not given here.

Assays:
[1] = target: T1, LAG-3 fusion protein comprising human LAG-3 extracellular domain fused to mouse Fc (human, UniProt P18627 23-450); assay: flow cytometry, inhibition of hLAG-3-mIg binding to MHC Class II on Daudi cells
T1 construct: extracellular domain; also called hLAG-3-mIg; LAG-3-mIg; not shown: mouse Fc
T1 sequence (looked up): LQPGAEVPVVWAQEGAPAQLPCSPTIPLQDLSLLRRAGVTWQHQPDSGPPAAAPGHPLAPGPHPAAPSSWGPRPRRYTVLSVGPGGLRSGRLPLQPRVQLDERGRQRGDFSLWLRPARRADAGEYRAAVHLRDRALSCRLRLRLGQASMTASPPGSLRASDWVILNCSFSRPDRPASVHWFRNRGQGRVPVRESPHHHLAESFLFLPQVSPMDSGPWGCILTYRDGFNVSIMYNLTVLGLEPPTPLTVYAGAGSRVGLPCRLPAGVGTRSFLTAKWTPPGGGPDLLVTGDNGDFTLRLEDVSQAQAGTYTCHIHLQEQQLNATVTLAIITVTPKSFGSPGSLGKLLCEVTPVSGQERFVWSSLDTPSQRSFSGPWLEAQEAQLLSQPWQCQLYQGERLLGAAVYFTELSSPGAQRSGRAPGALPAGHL
Procedure: To test the ability of the anti-LAG-3 antibodies to inhibit binding of LAG-3 to MHC Class II molecules, an in vitro binding assay was performed in which a LAG-3 fusion protein, comprising human LAG-3 extracellar domain fused to mouse Fc (hLAG-3-mIg), was reacted with Daudi cells, which express human MHC Class II molecules.
This mixture was incubated for 20 minutes at room temperature prior to adding to 2×10^{5 1}×PFAE-washed Daudi cells. The mixture was applied to Daudi cells and incubated at 4° C. for 30 minutes. The cells were pelleted (three minutes, 400×g), washed once with 1×PFAE buffer and re-pelleted, and binding of hLAG-3-mIg to the Daudi cells was detected using a recombinant PE-labeled anti-mIgG Fcγ secondary reagent. Analysis of LAG-3-mIg binding was carried out with the FACScalibur flow cytometer (BD Bioscience).

[2] = target: T2, LAG-3 extra loop scan peptide APSSWGPRPRRY (human, also: conjugated to biotin, site not given here); assay: peptide scan ELISA
T2 construct: 12-mer overlapping scan peptide of the extra loop
T2 peptide: APSSWGPRPRRY
Procedure: (§1) In the LAG-3 protein, the immunoglobulin-like first domain of the extracellular region contains an exposed “extra loop” having the amino acid sequence: […] (SEQ ID NO: 79). To examine the binding of 25E3, 25F7, 8B7 and 26H10 to this region of LAG-3, and map the epitope bound by each antibody, a peptide scan experiment was performed across this region. A series of 10 overlapping peptides that scanned across the full length of the extra loop sequence were prepared and conjugated to biotin. For ELISA analysis, microtiter plates pre-coated with streptavidin (Sigma-Aldrich, Cat # M5432) were used to capture the biotinylated loop peptide-conjugates applied in a 100 μl volume at a concentration of 2 μg/mL and incubated 18 hours at 4° C., after which the plates were washed 3 times and blocked at room temperature for 1 hour with blocking buffer (1×PBS+10% FBS). Next, human anti-LAG-3 antibodies serially diluted 3-fold in blocking buffer from 10 μg/mL were applied and the plates were incubated at room temperature for 2 hours and then washed three times. To detect bound human antibody a HRP-conjugated goat anti-human kappa light chain antibody (Bethyl Laboratories, Cat # A80-115P) was diluted to 1 μg/mL in blocking buffer and applied to assay wells for 1 hour followed by three washes and application of TMB substrate (eBioscience, Cat #00-4201-56). Optical density readings at 650 nm wavelength were made on a Spectramax 340PC spectrophotometer ([…].).

[3] = target: T3, LAG-3 extra loop scan peptide GPPAAAPGHPLA (human, also: conjugated to biotin, site not given here); assay: peptide scan ELISA
T3 construct: 12-mer overlapping scan peptide of the extra loop
T3 peptide: GPPAAAPGHPLA
Procedure: as §1

[4] = target: T4, LAG-3 extra loop scan peptide AAPGHPLAPGPH (human, also: conjugated to biotin, site not given here); assay: peptide scan ELISA
T4 construct: 12-mer overlapping scan peptide of the extra loop
T4 peptide: AAPGHPLAPGPH
Procedure: as §1

[5] = target: T5, LAG-3 extra loop scan peptide HPLAPGPHPAAP (human, also: conjugated to biotin, site not given here); assay: peptide scan ELISA
T5 construct: 12-mer overlapping scan peptide of the extra loop
T5 peptide: HPLAPGPHPAAP
Procedure: as §1

[6] = target: T6, LAG-3 extra loop scan peptide LAPGPHPAAPSS (human, also: conjugated to biotin, site not given here); assay: peptide scan ELISA
T6 construct: 12-mer overlapping scan peptide of the extra loop
T6 peptide: LAPGPHPAAPSS
Procedure: as §1

[7] = target: T7, LAG-3 extra loop scan peptide PAAAPGHPLAPG (human, also: conjugated to biotin, site not given here); assay: peptide scan ELISA
T7 construct: 12-mer overlapping scan peptide of the extra loop
T7 peptide: PAAAPGHPLAPG
Procedure: as §1

[8] = target: T8, LAG-3 extra loop scan peptide PGHPLAPGPHPA (human, also: conjugated to biotin); assay: peptide scan ELISA
T8 construct: 12-mer overlapping scan peptide of the extra loop
T8 peptide: PGHPLAPGPHPA
Procedure: as §1

B1: 26H10 human monoclonal antibody (antibody, IgG1, V domains shown)
VH: QVQLVESGGGVVQPGRSLRLSCAASGFTFSSYGMHWVRQAPGKGLEWVAVIWYDGSNKYYADSVKGRFTISRDNSKNTLYLQMNSLRAEDTAVYYCAREWAVASWDYGMDVWGQGTTVTVSS
VL: not shown
notes: also called 26H10-FITC
Q: Which results are given for B1?
A: IC50 [1]: 0.1 nM; binding result [2]: no binding (tested: 10 µg/mL); binding result [3]: no binding (tested: 10 µg/mL); binding result [4]: no binding (tested: 10 µg/mL); binding result [5]: no binding (tested: 10 µg/mL); binding result [6]: no binding (tested: 10 µg/mL); binding result [7]: no binding (tested: 10 µg/mL); binding result [8]: no binding (tested: 10 µg/mL)

B2: 25E3 human monoclonal antibody (antibody, IgG1, V domains shown)
VH: EVQLVESGGGVVRPGGSLRLSCAASGFTFDDYGMSWVRQAPGKGLEWVSGINWNGGSTYYADSVKGRFTISGDNAKNSLYLQMNSLRAEDTALYYCTTGGYWGQGTLVTVSS
VL: AIQLTQSPSSLSASVGDRVTITCRASQGIRSALAWYQQKPGKAPKLLIYDASSLESGVPSRFSGSGSGTDFTLTISSLQPEDFATYYCQQFNSYPYTFGQGTKLEIK
Q: For B2, which IC50 [1] is on record?
A: 0.8 to 6.78 nM

Q: Does B2 bind [4]?
A: binds

Q: Does B2 bind [7]?
A: binds

Q: Does B2 bind [8]?
A: binds

B3: 25F7 human monoclonal antibody (antibody, IgG1, V domains shown)
VH: QVQLQQWGAGLLKPSETLSLTCAVYGGSFSDYYWNWIRQPPGKGLEWIGEINHNGNTNSNPSLKSRVTLSLDTSKNQFSLKLRSVTAADTAVYYCAFGYSDYEYNWFDPWGQGTLVTVSS
VL: EIVLTQSPATLSLSPGERATLSCRASQSISSYLAWYQQKPGQAPRLLIYDASNRATGIPARFSGSGSGTDFTLTISSLEPEDFAVYYCQQRSNWPLTFGQGTNLEIK
notes: also called 25F7-FITC (IgG1 version)
Q: How did the IC50 [1] turn out when B3 was run?
A: 0.12 to 0.92 nM

B4: 8B7 human monoclonal antibody (antibody, IgG4, V domains shown)
VH: QVQLQQWGAGLLKPSETLSLTCAVYGGSFSGYYWSWIRQPPGKGLEWIGEINHRGNTNCNPSLKSRVTISGDTSKKQFALKLNSVTAADTAVYYCARGYDILTGYYEDSWGPGTLVTVSS
VL: B3 VL with I29V, D50N, Q100G, N103K, L104V
notes: also called 8B7-FITC
Q: Which IC50 [1] does the source give for B4 here?
A: 0.19 to 0.95 nM
